The source of these data is the supplement of paper PMC9233669.

One series deals with biotinyl-Ile-oxazolone. As to the kind of experiment: self-aminoacylation, catalytic enhancement (BIO) (fold over background); higher = more active; k-Seq, kA / k0A0; sequences stand for … in GGGAAUGGAUCCACAUCUACGAAUUC…UUCACUGCAGACUUGACGAAGCUG
The gist of the method:
(§1)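 Each biotinyl-aminoacyl-oxazolone, at 2–1250 μM, was incubated with mutagenized RNA pools (0.43 μM) carrying a 21-nt variable region. The 50 μL reactions contained HEPES/NaCl/KCl/MgCl2/CaCl2 buffer with 5% acetonitrile at pH 6.9–7.0 and ran for 90 minutes at room temperature. After streptavidin capture, RNA was measured by qPCR in triplicate and by Illumina sequencing, and catalytic enhancement was calculated as median kA over the uncatalyzed rate from a pseudo-first-order fit of per-sequence fraction reacted.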

The subject of a further series is biotinyl-Met-oxazolone. As to the kind of experiment: self-aminoacylation, catalytic enhancement (BMO) (fold over background); higher = more active; k-Seq, kA / k0A0; sequences stand for … in GGGAAUGGAUCCACAUCUACGAAUUC…UUCACUGCAGACUUGACGAAGCUG
The gist of the method:
as §1

The subject of a further series is biotinyl-Val-oxazolone. As to the kind of experiment: self-aminoacylation, catalytic enhancement (BVO) (fold over background); higher = more active; k-Seq, kA / k0A0; sequences stand for … in GGGAAUGGAUCCACAUCUACGAAUUC…UUCACUGCAGACUUGACGAAGCUG
The gist of the method:
as §1

The next series has as its system biotinyl-Trp-oxazolone. Nature of the series: self-aminoacylation, catalytic enhancement (BWO) (fold over background); higher = more active; k-Seq, kA / k0A0; sequences stand for … in GGGAAUGGAUCCACAUCUACGAAUUC…UUCACUGCAGACUUGACGAAGCUG
The method, boiled down:
as §1

In the next series the test system is biotinyl-Phe-oxazolone. Nature of the series: self-aminoacylation, catalytic enhancement (BFO) (fold over background); higher = more active; k-Seq, kA / k0A0; sequences stand for … in GGGAAUGGAUCCACAUCUACGAAUUC…UUCACUGCAGACUUGACGAAGCUG
The gist of the method:
as §1

For another series, the system named is biotinyl-Leu-oxazolone. Nature of the series: self-aminoacylation, catalytic enhancement (BLO) (fold over background); higher = more active; k-Seq, kA / k0A0; sequences stand for … in GGGAAUGGAUCCACAUCUACGAAUUC…UUCACUGCAGACUUGACGAAGCUG
The gist of the method: as §1

This sample holds only a part of the variants without activity.

Consider “AUUACCCAGCUCAUCGAGUGA [Fam2.1 aminoacylation ribozyme variant]”, for which the self-aminoacylation turned out to be 1.47 in the series with biotinyl-Ile-oxazolone; 1.54 with biotinyl-Met-oxazolone; 1.56 in the series with biotinyl-Val-oxazolone; 1.32 with biotinyl-Trp-oxazolone; 1.01 with biotinyl-Phe-oxazolone; 1.52 with biotinyl-Leu-oxazolone.
For the sequence “CCACACGUCGAGCAAUCGGUC [Fam1B.1 aminoacylation ribozyme variant]”, the self-aminoacylation worked out at 1.17 in the series on biotinyl-Ile-oxazolone; 0.959 with biotinyl-Met-oxazolone; 2.02 in the series with biotinyl-Val-oxazolone; 1.22 in the series with biotinyl-Trp-oxazolone; 0.83 in the series with biotinyl-Phe-oxazolone; 1.41 in the series on biotinyl-Leu-oxazolone.
As to “CCACACAUCAAGCUAUCGGUC [Fam1B.1 aminoacylation ribozyme variant]”, the self-aminoacylation in the series on biotinyl-Ile-oxazolone was 0.954; in the series with biotinyl-Met-oxazolone it was 0.888; with biotinyl-Val-oxazolone, 1.15; in the series on biotinyl-Trp-oxazolone it was 0.735; in the series on biotinyl-Phe-oxazolone, 0.819; in the series with biotinyl-Leu-oxazolone, 0.914.
As to “AUUCAUAUAGGUCAUCGGGUG [Fam2.2 aminoacylation ribozyme variant]”, the self-aminoacylation was found to be 3.42 in the series on biotinyl-Ile-oxazolone; 4.9 with biotinyl-Met-oxazolone; 3.28 in the series on biotinyl-Val-oxazolone; 5.78 with biotinyl-Trp-oxazolone; 34.2 in the series with biotinyl-Phe-oxazolone; 6.04 with biotinyl-Leu-oxazolone.
As to “CCACUCUUCAAGCAAUCGGUG [Fam1B.1 aminoacylation ribozyme variant]”, the self-aminoacylation in the series on biotinyl-Ile-oxazolone was 3.43; with biotinyl-Met-oxazolone, 4.76; in the series with biotinyl-Val-oxazolone, 3.46; in the series on biotinyl-Trp-oxazolone it was 5.05; with biotinyl-Phe-oxazolone, 23.1; in the series on biotinyl-Leu-oxazolone, 7.12.
With “CCAGACUUCAAGCAAACGGUC [Fam1B.1 aminoacylation ribozyme variant]”, the self-aminoacylation with biotinyl-Ile-oxazolone worked out at 0.706; with biotinyl-Met-oxazolone, 0.591; with biotinyl-Val-oxazolone, 0.811; with biotinyl-Trp-oxazolone, 0.814; in the series with biotinyl-Phe-oxazolone, 0.824; in the series with biotinyl-Leu-oxazolone, 0.628.
Take “GAGUUUACUAAUAGUCGCAAG [Fam3.1 aminoacylation ribozyme variant]”: the self-aminoacylation in the series on biotinyl-Ile-oxazolone worked out at 1.84; with biotinyl-Met-oxazolone, 1.19; with biotinyl-Val-oxazolone, 1.29; in the series on biotinyl-Trp-oxazolone, 2.33; in the series on biotinyl-Phe-oxazolone, 3.13; in the series on biotinyl-Leu-oxazolone it was 1.59.
Consider “AUUCACAUAGGUCAUGGGGUG [Fam2.2 aminoacylation ribozyme variant]”, for which the self-aminoacylation worked out at 4.56 in the series with biotinyl-Ile-oxazolone; 7.28 with biotinyl-Met-oxazolone; 4.12 in the series on biotinyl-Val-oxazolone; 6.97 in the series with biotinyl-Trp-oxazolone; 46.7 with biotinyl-Phe-oxazolone; 9.35 in the series on biotinyl-Leu-oxazolone.
Regarding “CUACUGCAUACAAUCGGUCUG [Fam1A.1 aminoacylation ribozyme variant]”, the self-aminoacylation in the series with biotinyl-Ile-oxazolone stood at 0.677; in the series with biotinyl-Met-oxazolone, 0.612; in the series with biotinyl-Val-oxazolone it was 0.643; in the series with biotinyl-Trp-oxazolone, 0.659; with biotinyl-Phe-oxazolone, 0.959; with biotinyl-Leu-oxazolone, 0.577.
Take “CAACACUUCAAGCAAUCGGUA [Fam1B.1 aminoacylation ribozyme variant]”: the self-aminoacylation came out at 1.25 in the series with biotinyl-Ile-oxazolone; 1.15 in the series with biotinyl-Met-oxazolone; 1.14 in the series on biotinyl-Val-oxazolone; 1.23 with biotinyl-Trp-oxazolone; 1.44 in the series on biotinyl-Phe-oxazolone; 1.13 in the series with biotinyl-Leu-oxazolone.
Regarding “AAGUUUGAUAAUAGUCGUAAG [Fam3.1 aminoacylation ribozyme variant]”, the self-aminoacylation in the series with biotinyl-Ile-oxazolone worked out at 0.716; in the series on biotinyl-Met-oxazolone it was 0.625; in the series with biotinyl-Val-oxazolone, 0.603; in the series with biotinyl-Trp-oxazolone, 0.783; with biotinyl-Phe-oxazolone, 1.38; in the series with biotinyl-Leu-oxazolone it was 0.65.
Take “AUACUUCAAACCAUCGGUCUG [Fam1A.1 aminoacylation ribozyme variant]”: the self-aminoacylation stood at 1.1 in the series on biotinyl-Ile-oxazolone; 0.774 in the series with biotinyl-Met-oxazolone; 0.917 with biotinyl-Val-oxazolone; 1.07 with biotinyl-Trp-oxazolone; 0.887 in the series on biotinyl-Phe-oxazolone; 0.902 with biotinyl-Leu-oxazolone.
In the case of “AUUACCCUGGUUACCGAGUGA [Fam2.1 aminoacylation ribozyme variant]”, the self-aminoacylation in the series with biotinyl-Ile-oxazolone amounted to 5.43; with biotinyl-Met-oxazolone, 11.9; in the series on biotinyl-Val-oxazolone, 5.65; in the series on biotinyl-Trp-oxazolone, 12.3; in the series with biotinyl-Phe-oxazolone, 78.8; in the series on biotinyl-Leu-oxazolone it was 12.6.
For “AAGUAUGCUAAUAGGCGCAAG [Fam3.1 aminoacylation ribozyme variant]”, the self-aminoacylation in the series on biotinyl-Ile-oxazolone was 0.992; with biotinyl-Met-oxazolone it was 0.748; in the series with biotinyl-Val-oxazolone, 1.18; with biotinyl-Trp-oxazolone, 1.58; in the series on biotinyl-Phe-oxazolone, 0.856; in the series with biotinyl-Leu-oxazolone, 1.08.
Consider “AAUCACCUACGUCAUCGGGUG [Fam2.2 aminoacylation ribozyme variant]”, for which the self-aminoacylation was determined as 4.41 in the series with biotinyl-Ile-oxazolone; 6.56 with biotinyl-Met-oxazolone; 3.79 in the series with biotinyl-Val-oxazolone; 7.27 in the series on biotinyl-Trp-oxazolone; 53 in the series on biotinyl-Phe-oxazolone; 6.01 with biotinyl-Leu-oxazolone.
“AUUCACCUAGGUCACCGGGGG [Fam2.2 aminoacylation ribozyme variant]”: the self-aminoacylation with biotinyl-Ile-oxazolone was determined as 3.62; in the series on biotinyl-Met-oxazolone, 3.37; in the series with biotinyl-Val-oxazolone it was 3.51; in the series on biotinyl-Trp-oxazolone, 4.38; in the series with biotinyl-Phe-oxazolone it was 21.4; in the series with biotinyl-Leu-oxazolone it was 3.12.
With “AAUUUUGUUAAUAGUCGCAAG [Fam3.1 aminoacylation ribozyme variant]”, the self-aminoacylation was found to be 2.04 in the series on biotinyl-Ile-oxazolone; 2.05 with biotinyl-Met-oxazolone; 1.72 in the series with biotinyl-Val-oxazolone; 2.56 in the series with biotinyl-Trp-oxazolone; 2.48 in the series on biotinyl-Phe-oxazolone; 1.93 in the series with biotinyl-Leu-oxazolone.
Regarding “AAGUUUGCUAAUAGCCGCAUG [Fam3.1 aminoacylation ribozyme variant]”, the self-aminoacylation turned out to be 1.07 in the series with biotinyl-Ile-oxazolone; 1.12 in the series on biotinyl-Met-oxazolone; 1.1 in the series on biotinyl-Val-oxazolone; 1.54 with biotinyl-Trp-oxazolone; 2 in the series with biotinyl-Phe-oxazolone; 1.19 in the series on biotinyl-Leu-oxazolone.
With “AAGUUCGCUAAUAGUCGCUAG [Fam3.1 aminoacylation ribozyme variant]”, the self-aminoacylation with biotinyl-Ile-oxazolone worked out at 1.48; with biotinyl-Met-oxazolone, 1.53; in the series with biotinyl-Val-oxazolone, 1.4; with biotinyl-Trp-oxazolone, 1.45; in the series with biotinyl-Phe-oxazolone, 1.34; in the series with biotinyl-Leu-oxazolone it was 1.47.
In the case of “AUGCCCCUAGGUCAUCGGGUG [Fam2.2 aminoacylation ribozyme variant]”, the self-aminoacylation in the series on biotinyl-Ile-oxazolone was found to be 5.52; in the series on biotinyl-Met-oxazolone it was 8.48; in the series with biotinyl-Val-oxazolone, 5.39; with biotinyl-Trp-oxazolone, 7.6; in the series on biotinyl-Phe-oxazolone it was 63.9; in the series on biotinyl-Leu-oxazolone it was 11.1.
Take “AAGUUUGCUAAUAGAGGCAAG [Fam3.1 aminoacylation ribozyme variant]”: the self-aminoacylation is 0.762 in the series on biotinyl-Ile-oxazolone; 0.692 in the series on biotinyl-Met-oxazolone; 0.733 with biotinyl-Val-oxazolone; 0.788 in the series with biotinyl-Trp-oxazolone; 0.955 with biotinyl-Phe-oxazolone; 0.554 with biotinyl-Leu-oxazolone.
